Source: article PMC4434323

target: T1, atf-5 (T04C10.4) (Caenorhabditis elegans) (UniProt Q22156)
T1 sequence: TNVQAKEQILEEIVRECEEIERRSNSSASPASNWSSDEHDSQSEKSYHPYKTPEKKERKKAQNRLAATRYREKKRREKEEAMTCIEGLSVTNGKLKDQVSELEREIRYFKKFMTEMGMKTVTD

Sequence	binding signal (PBM E-score (-0.5 to 0.5))
ACGTCAGC (double strand) [8-mer ACGTCAGC]	0.491
CTGACGTA (double strand) [8-mer CTGACGTA]	0.455
TGATATCA (double strand) [8-mer TGATATCA]	0.474

target: T2, atf-6 (F45E6.2) (Caenorhabditis elegans) (UniProt Q20435)
T2 sequence: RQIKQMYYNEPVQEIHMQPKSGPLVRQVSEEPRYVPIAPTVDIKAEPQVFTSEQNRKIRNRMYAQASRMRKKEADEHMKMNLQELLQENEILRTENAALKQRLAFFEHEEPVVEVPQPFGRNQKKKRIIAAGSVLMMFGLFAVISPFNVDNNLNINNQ

Sequence	binding signal (PBM E-score (-0.5 to 0.5))
ACGTCAGC (double strand) [8-mer ACGTCAGC]	0.469
CTGACGTA (double strand) [8-mer CTGACGTA]	0.474

target: T3, ceh-34 (C10G8.6) (Caenorhabditis elegans) (UniProt Q94165)
T3 sequence: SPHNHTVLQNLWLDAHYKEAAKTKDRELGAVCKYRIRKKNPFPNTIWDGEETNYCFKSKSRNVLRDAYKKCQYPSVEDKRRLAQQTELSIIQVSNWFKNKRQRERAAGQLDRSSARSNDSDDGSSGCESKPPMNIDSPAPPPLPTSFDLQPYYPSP

Sequence	binding signal (PBM E-score (-0.5 to 0.5))
TGATATCA (double strand) [8-mer TGATATCA]	0.483

target: T4, end-1 (F58E10.2) (Caenorhabditis elegans) (UniProt G5EDN4)
T4 sequence: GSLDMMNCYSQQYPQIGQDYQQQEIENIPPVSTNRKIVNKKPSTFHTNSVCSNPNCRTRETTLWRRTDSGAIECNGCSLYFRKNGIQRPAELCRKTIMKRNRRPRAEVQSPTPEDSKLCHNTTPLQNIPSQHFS

Sequence	binding signal (PBM E-score (-0.5 to 0.5))
TGATATCA (double strand) [8-mer TGATATCA]	0.493

target: T5, nhr-1 (R09G11.2) (Caenorhabditis elegans) (UniProt Q21878)
T5 sequence: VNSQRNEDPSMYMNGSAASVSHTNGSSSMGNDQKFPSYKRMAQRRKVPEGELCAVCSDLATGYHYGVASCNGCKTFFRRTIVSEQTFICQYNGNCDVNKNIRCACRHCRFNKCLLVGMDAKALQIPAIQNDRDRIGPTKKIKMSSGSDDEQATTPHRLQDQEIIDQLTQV

Sequence	binding signal (PBM E-score (-0.5 to 0.5))
AATGATCA (double strand) [8-mer AATGATCA]	0.493
ACTGATCA (double strand) [8-mer ACTGATCA]	0.478
AGAGATCA (double strand) [8-mer AGAGATCA]	0.474
AGCGATCA (double strand) [8-mer AGCGATCA]	0.476
AGGGATCA (double strand) [8-mer AGGGATCA]	0.479
AGTGATCA (double strand) [8-mer AGTGATCA]	0.495
ATGATCAC (double strand) [8-mer ATGATCAC]	0.486
ATGATCAT (double strand) [8-mer ATGATCAT]	0.476
ATTGATCA (double strand) [8-mer ATTGATCA]	0.479
GATGATCA (double strand) [8-mer GATGATCA]	0.488
GGTGATCA (double strand) [8-mer GGTGATCA]	0.488
GTGATCAA (double strand) [8-mer GTGATCAA]	0.472
GTGATCAC (double strand) [8-mer GTGATCAC]	0.489
GTTGATCA (double strand) [8-mer GTTGATCA]	0.477

target: T6, nhr-204 (R02C2.4) (Caenorhabditis elegans) (UniProt O44543)
T6 sequence: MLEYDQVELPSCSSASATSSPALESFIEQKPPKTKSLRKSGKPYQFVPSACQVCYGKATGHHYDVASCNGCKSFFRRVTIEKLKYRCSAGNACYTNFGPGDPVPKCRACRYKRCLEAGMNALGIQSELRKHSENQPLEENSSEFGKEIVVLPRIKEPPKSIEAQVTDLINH

Sequence	binding signal (PBM E-score (-0.5 to 0.5))
AATTGATC (double strand) [8-mer AATTGATC]	0.477
AATTGGTC (double strand) [8-mer AATTGGTC]	0.484
ACTGATCA (double strand) [8-mer ACTGATCA]	0.477
AGACCAAT (double strand) [8-mer AGACCAAT]	0.486
ATTGATCA (double strand) [8-mer ATTGATCA]	0.489
CAGACCAA (double strand) [8-mer CAGACCAA]	0.479
CTGATCAA (double strand) [8-mer CTGATCAA]	0.481
GACCAAAA (double strand) [8-mer GACCAAAA]	0.476
GTGATCAA (double strand) [8-mer GTGATCAA]	0.478
GTTGATCA (double strand) [8-mer GTTGATCA]	0.482
TAGACCAA (double strand) [8-mer TAGACCAA]	0.479
TCTGATCA (double strand) [8-mer TCTGATCA]	0.482
TGATCAAA (double strand) [8-mer TGATCAAA]	0.483
TTGATCAA (double strand) [8-mer TTGATCAA]	0.493

tested on: T7, nhr-216 (T09D3.4) (Caenorhabditis elegans)
T7 sequence: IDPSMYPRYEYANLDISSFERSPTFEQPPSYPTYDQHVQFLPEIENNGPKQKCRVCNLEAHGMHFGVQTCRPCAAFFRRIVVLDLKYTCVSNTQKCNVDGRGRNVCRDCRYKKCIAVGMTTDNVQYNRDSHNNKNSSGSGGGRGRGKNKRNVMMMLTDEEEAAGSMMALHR

Sequence	binding signal (PBM E-score (-0.5 to 0.5))
AAGTCAGA (double strand) [8-mer AAGTCAGA]	0.493
AATCAGAA (double strand) [8-mer AATCAGAA]	0.497
AGTCAGAA (double strand) [8-mer AGTCAGAA]	0.498
ATCAGAAC (double strand) [8-mer ATCAGAAC]	0.494
ATCAGAAG (double strand) [8-mer ATCAGAAG]	0.494
ATTCTGAC (double strand) [8-mer ATTCTGAC]	0.495
CGTCAGAA (double strand) [8-mer CGTCAGAA]	0.493
CTTCTGAC (double strand) [8-mer CTTCTGAC]	0.498
GATCAGAA (double strand) [8-mer GATCAGAA]	0.497
GGACAGAA (double strand) [8-mer GGACAGAA]	0.493
GGTCAGAA (double strand) [8-mer GGTCAGAA]	0.498
GTCAGAAA (double strand) [8-mer GTCAGAAA]	0.496
GTCAGAAC (double strand) [8-mer GTCAGAAC]	0.498
TCTGACCA (double strand) [8-mer TCTGACCA]	0.491
TGTCAGAA (double strand) [8-mer TGTCAGAA]	0.496

target: T8, nhr-232 (Y22F5A.1) (Caenorhabditis elegans) (UniProt A0A486WVR6)
T8 sequence: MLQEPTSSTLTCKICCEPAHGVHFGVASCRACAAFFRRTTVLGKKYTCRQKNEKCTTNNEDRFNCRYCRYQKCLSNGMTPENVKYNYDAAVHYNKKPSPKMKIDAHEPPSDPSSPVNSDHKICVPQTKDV

Sequence	binding signal (PBM E-score (-0.5 to 0.5))
ACACAAAA (double strand) [8-mer ACACAAAA]	0.465

target: T9, nhr-3 (H01A20.1) (Caenorhabditis elegans) (UniProt Q9XTJ4)
T9 sequence: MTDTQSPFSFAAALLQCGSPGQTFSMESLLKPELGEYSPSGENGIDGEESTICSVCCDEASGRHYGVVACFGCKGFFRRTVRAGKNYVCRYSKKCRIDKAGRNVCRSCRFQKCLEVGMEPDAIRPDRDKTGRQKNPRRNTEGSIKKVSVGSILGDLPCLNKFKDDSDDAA

Sequence	binding signal (PBM E-score (-0.5 to 0.5))
AGAGATCA (double strand) [8-mer AGAGATCA]	0.462

target: nhr-34 (F58G6.5) (Caenorhabditis elegans) (UniProt Q21006)
Sequence (Q21006 99-268): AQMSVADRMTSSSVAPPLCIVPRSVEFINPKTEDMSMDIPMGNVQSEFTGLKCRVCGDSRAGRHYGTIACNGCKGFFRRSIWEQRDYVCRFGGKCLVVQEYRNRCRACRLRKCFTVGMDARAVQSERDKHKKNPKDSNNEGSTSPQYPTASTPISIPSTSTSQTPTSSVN

Sequence	binding signal (PBM E-score (-0.5 to 0.5))
AGAGATCA (double strand) [8-mer AGAGATCA]	0.488
TTGATCAA (double strand) [8-mer TTGATCAA]	0.481

target: T10, nhr-46 (C45E5.6) (Caenorhabditis elegans) (UniProt Q95QR2)
T10 sequence: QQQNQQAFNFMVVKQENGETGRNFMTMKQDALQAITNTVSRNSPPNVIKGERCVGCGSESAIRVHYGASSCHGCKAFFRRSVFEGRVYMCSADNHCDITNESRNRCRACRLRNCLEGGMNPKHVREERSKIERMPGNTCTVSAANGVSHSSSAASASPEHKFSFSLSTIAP

Sequence	binding signal (PBM E-score (-0.5 to 0.5))
AGAGATCA (double strand) [8-mer AGAGATCA]	0.478

target: T11, nhr-66 (T09A12.4) (Caenorhabditis elegans) (UniProt H2KYJ8)
T11 sequence: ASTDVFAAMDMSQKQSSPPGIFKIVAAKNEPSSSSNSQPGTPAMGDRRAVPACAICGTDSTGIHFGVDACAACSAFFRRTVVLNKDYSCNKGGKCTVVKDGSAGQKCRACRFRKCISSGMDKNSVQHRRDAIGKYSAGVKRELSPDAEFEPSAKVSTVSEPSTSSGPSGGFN

Sequence	binding signal (PBM E-score (-0.5 to 0.5))
AAACTACA (double strand) [8-mer AAACTACA]	0.484
AACTACAC (double strand) [8-mer AACTACAC]	0.486
AATGTAGT (double strand) [8-mer AATGTAGT]	0.48
ACTACAAC (double strand) [8-mer ACTACAAC]	0.482
ACTACACA (double strand) [8-mer ACTACACA]	0.484
ACTACACG (double strand) [8-mer ACTACACG]	0.481
ACTACACT (double strand) [8-mer ACTACACT]	0.487
CAACTACA (double strand) [8-mer CAACTACA]	0.484

target: T12, odr-7 (T18D3.2) (Caenorhabditis elegans) (UniProt P41933)
T12 sequence: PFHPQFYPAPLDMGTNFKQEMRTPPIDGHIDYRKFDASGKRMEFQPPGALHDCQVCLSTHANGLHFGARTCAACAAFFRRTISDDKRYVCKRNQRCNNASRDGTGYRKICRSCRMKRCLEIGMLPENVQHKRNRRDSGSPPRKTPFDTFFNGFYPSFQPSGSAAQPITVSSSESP

Sequence	binding signal (PBM E-score (-0.5 to 0.5))
AAATTGTA (double strand) [8-mer AAATTGTA]	0.456
AATTGTAC (double strand) [8-mer AATTGTAC]	0.46
AATTGTAG (double strand) [8-mer AATTGTAG]	0.489
ATACAATA (double strand) [8-mer ATACAATA]	0.461
ATTGTAGC (double strand) [8-mer ATTGTAGC]	0.487
ATTTGTAG (double strand) [8-mer ATTTGTAG]	0.479
CTACAATC (double strand) [8-mer CTACAATC]	0.466
TACAAATA (double strand) [8-mer TACAAATA]	0.461
TACTACAA (double strand) [8-mer TACTACAA]	0.474
